Experimental data taken from the supplement of paper PMC10126150.
± gives the standard deviation of the averaged measurements.

Test system: ATP
Experiment: switch fluorescence ratio, 500 uM ATP over buffer (Cy3 cluster intensity, sum of 5 cycles each) (fold (ratio)); higher = stronger signal-on switching upon ATP binding; sequences stand for … in TCGTCGGCAGCGTCAGATGTGTATAAGAGACAGTTTTTTTTTTTTTTTTTTTTTTTTT…TC
Conditions: aptamer strand: ATP DNA aptamer (quencher-CACCTGGGGGAGTATTGCGGAGGAAGG + anchor), 100 nM annealed; ATP concentration: 500 uM
Summary of the method: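 Clusters carrying Cy3-labelled switching strands on a modified Illumina MiSeq flow-cell were annealed to 100 nM quencher-labelled ATP aptamer and imaged in selection buffer. They were imaged again after 15 min with 500 uM ATP at 22 °C, over five buffer/ATP cycles with NaOH stripping and re-annealing in between. For each cluster, the fluorescence ratio is the summed Cy3 intensity of the target cycles divided by that of the buffer cycles, averaged per switch-domain sequence. Clusters outside 100-1000 RFU were left out.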
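Further: ATP exposure 15 min at 22 °C before imaging.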

CAGGGGTCTA
switch fluorescence ratio: 0.9957 ± 0.004

CAGGGGTTA
switch fluorescence ratio: 1.03 ± 0.044

CAGGGGTTGA
switch fluorescence ratio: 0.987 ± 0.035

CAGGGGTTGC
switch fluorescence ratio: 1.01 ± 0.013

CAGGGTATTT
switch fluorescence ratio: 0.981 ± 0.032

CAGGGTGATG
switch fluorescence ratio: 0.985 ± 0.024

CAGGGTGGAC
switch fluorescence ratio: 1.04 ± 0.04

CAGGGTTGGT
switch fluorescence ratio: 0.977 ± 0.033

CAGGGTTTCG
switch fluorescence ratio: 1.02 ± 0.078

CAGGTAAATG
switch fluorescence ratio: 0.9961 ± 0.0027

CAGGTCTTTC
switch fluorescence ratio: 1.02 ± 0.021

CAGGTGAGTG
switch fluorescence ratio: 1.251 ± 0.0088

CAGGTGCGGG
switch fluorescence ratio: 1.1694 ± 0.0009

CAGGTGCTGG
switch fluorescence ratio: 1.167 ± 0.0018

CAGGTGGAGA
switch fluorescence ratio: 1.0094 ± 0.00078

CAGGTGTGGC
switch fluorescence ratio: 1.11 ± 0.013

CAGGTGTTTG
switch fluorescence ratio: 1.39 ± 0.055

CAGGTTACGC
switch fluorescence ratio: 1.01 ± 0.027

CAGGTTGGGT
switch fluorescence ratio: 1.001 ± 0.0086

CAGGTTGTGC
switch fluorescence ratio: 0.98 ± 0.055

CAGGTTTAGT
switch fluorescence ratio: 0.9682 ± 0.0043

CAGTAACTGT
switch fluorescence ratio: 1.02 ± 0.027

CAGTACTCTG
switch fluorescence ratio: 0.986 ± 0.031

CAGTAGAATT
switch fluorescence ratio: 1.02 ± 0.023

CAGTAGTGTC
switch fluorescence ratio: 0.985 ± 0.041

CAGTCAGCGG
switch fluorescence ratio: 1.01 ± 0.02

CAGTCATGGG
switch fluorescence ratio: 1 ± 0.035

CAGTCATTCG
switch fluorescence ratio: 0.99 ± 0.016

CAGTCCGGCA
switch fluorescence ratio: 1.05 ± 0.021

CAGTCCGGTC
switch fluorescence ratio: 1.06 ± 0.014

CAGTGAGGGT
switch fluorescence ratio: 0.981 ± 0.019

CAGTGCACTC
switch fluorescence ratio: 0.9918 ± 0.0014

CAGTGCGTGG
switch fluorescence ratio: 0.988 ± 0.017

CAGTGCGTGT
switch fluorescence ratio: 1 ± 0.03

CAGTGGCCTA
switch fluorescence ratio: 0.99094 ± 0.00045

CAGTGGGAGA
switch fluorescence ratio: 1.025 ± 0.0088

CAGTGGGGCA
switch fluorescence ratio: 1.03 ± 0.053

CAGTGGGGGC
switch fluorescence ratio: 1.05 ± 0.087

CAGTGGTCGT
switch fluorescence ratio: 0.999 ± 0.011

CAGTGTGGTG
switch fluorescence ratio: 1 ± 0.049

CAGTTAAAGG
switch fluorescence ratio: 1.01 ± 0.017

CAGTTACACG
switch fluorescence ratio: 0.995 ± 0.023

CAGTTAGGGG
switch fluorescence ratio: 1.02 ± 0.013

CAGTTCATGA
switch fluorescence ratio: 1.01 ± 0.027

CAGTTCTCGT
switch fluorescence ratio: 0.969 ± 0.018

CAGTTGATGC
switch fluorescence ratio: 1.01 ± 0.096

CAGTTGCTGA
switch fluorescence ratio: 0.999 ± 0.011

CAGTTGGGGT
switch fluorescence ratio: 0.997 ± 0.022

CAGTTGTAAA
switch fluorescence ratio: 0.9699 ± 0.0067

CAGTTGTTGG
switch fluorescence ratio: 0.984 ± 0.011

CAGTTTTATC
switch fluorescence ratio: 1.012 ± 0.0039

CAGTTTTCGG
switch fluorescence ratio: 1 ± 0.021

CAGTTTTGAG
switch fluorescence ratio: 0.9917 ± 0.0014

CATAAAAGAT
switch fluorescence ratio: 1.01 ± 0.017

CATAAAGATG
switch fluorescence ratio: 1.053 ± 0.01

CATAACCGGT
switch fluorescence ratio: 1.01 ± 0.027

CATAATAC
switch fluorescence ratio: 1.82 ± 0.4

CATAATTTTT
switch fluorescence ratio: 0.991 ± 0.062

CATACAATTG
switch fluorescence ratio: 1.06 ± 0.091

CATACACAGG
switch fluorescence ratio: 1.26 ± 0.078

CATACATCCG
switch fluorescence ratio: 1.07 ± 0.038

CATAGACGGG
switch fluorescence ratio: 1.03 ± 0.081

CATAGATAGG
switch fluorescence ratio: 0.992 ± 0.011

CATAGGATCG
switch fluorescence ratio: 0.949 ± 0.038

CATAGTGTTT
switch fluorescence ratio: 1.01 ± 0.012

CATAGTTTGG
switch fluorescence ratio: 1.07 ± 0.034

CATATAATTC
switch fluorescence ratio: 0.975 ± 0.042

CATATAGGGC
switch fluorescence ratio: 0.985 ± 0.02

CATATATCGG
switch fluorescence ratio: 1.02 ± 0.012

CATATATTGG
switch fluorescence ratio: 1.02 ± 0.05

CATATCACAT
switch fluorescence ratio: 1.024 ± 0.0062

CATATCGAAA
switch fluorescence ratio: 1.013 ± 0.0033

CATATGGGGG
switch fluorescence ratio: 1.02 ± 0.046

CATATGTTTT
switch fluorescence ratio: 1 ± 0.035

CATATTATCA
switch fluorescence ratio: 1.02 ± 0.024

CATATTCAAT
switch fluorescence ratio: 1 ± 0.015

CATATTTGCC
switch fluorescence ratio: 1.03 ± 0.059

CATCAAGGCA
switch fluorescence ratio: 1.01 ± 0.019

CATCAATCTC
switch fluorescence ratio: 1.12 ± 0.02

CATCAGGAGG
switch fluorescence ratio: 0.961 ± 0.035

CATCATGTTT
switch fluorescence ratio: 0.984 ± 0.015

CATCATTGGC
switch fluorescence ratio: 0.974 ± 0.092

CATCCGGCCG
switch fluorescence ratio: 1.194 ± 0.0019

CATCCGGGGG
switch fluorescence ratio: 1.56 ± 0.73

CATCGGAGGG
switch fluorescence ratio: 1.02 ± 0.029

CATCGGCTGA
switch fluorescence ratio: 0.992 ± 0.023

CATCGGTCTT
switch fluorescence ratio: 0.958 ± 0.039

CATCGTAAAT
switch fluorescence ratio: 1.06 ± 0.016

CATCGTGTTA
switch fluorescence ratio: 1.01 ± 0.022

CATCGTTTTT
switch fluorescence ratio: 1.02 ± 0.02

CATCTAAAGA
switch fluorescence ratio: 1.005 ± 0.0067

CATCTAAGGG
switch fluorescence ratio: 0.983 ± 0.042

CATCTAGGGC
switch fluorescence ratio: 1.04 ± 0.028

CATCTCCCTG
switch fluorescence ratio: 1.06 ± 0.016

CATCTGGGCC
switch fluorescence ratio: 1.01 ± 0.022

CATCTTTGCA
switch fluorescence ratio: 0.9943 ± 0.0063

CATGACGTGT
switch fluorescence ratio: 1.01 ± 0.012

CATGACTCCC
switch fluorescence ratio: 2.01 ± 0.13

CATGAGGTCG
switch fluorescence ratio: 0.989 ± 0.047

CATGAGGTTA
switch fluorescence ratio: 0.9855 ± 0.0094

CATGATAAT
switch fluorescence ratio: 0.998 ± 0.022

CATGATGGGG
switch fluorescence ratio: 0.96 ± 0.027

CATGATTGAT
switch fluorescence ratio: 0.976 ± 0.029

CATGCAGGGT
switch fluorescence ratio: 1.04 ± 0.016

CATGCCAAGC
switch fluorescence ratio: 1.15 ± 0.045

CATGCGGCTA
switch fluorescence ratio: 1.05 ± 0.044

CATGCGGTTG
switch fluorescence ratio: 0.978 ± 0.013

CATGCGTTG
switch fluorescence ratio: 0.9898 ± 0.0016

CATGCTATTC
switch fluorescence ratio: 1.17 ± 0.049

CATGGAGATT
switch fluorescence ratio: 0.9866 ± 0.0092

CATGGATGAA
switch fluorescence ratio: 1.04 ± 0.007

CATGGATGCC
switch fluorescence ratio: 0.998 ± 0.022

CATGGCACTT
switch fluorescence ratio: 1.009 ± 0.0041

CATGGCTTAT
switch fluorescence ratio: 1.01 ± 0.038

CATGGGAAGG
switch fluorescence ratio: 0.997 ± 0.034

CATGGGAAGT
switch fluorescence ratio: 1.01 ± 0.035

CATGGGACGT
switch fluorescence ratio: 0.988 ± 0.071

CATGGGAGTT
switch fluorescence ratio: 0.978 ± 0.025

CATGGGGATT
switch fluorescence ratio: 1.017 ± 0.0057

CATGGGGCGG
switch fluorescence ratio: 1 ± 0.052

CATGGGGGAC
switch fluorescence ratio: 0.995 ± 0.031

CATGGGGGCG
switch fluorescence ratio: 1.01 ± 0.078

CATGGGGGTC
switch fluorescence ratio: 1 ± 0.036

CATGGGGTCT
switch fluorescence ratio: 1.03 ± 0.05

CATGGGGTTT
switch fluorescence ratio: 1.01 ± 0.018

CATGGTAAGT
switch fluorescence ratio: 0.994 ± 0.053

CATGGTTCGC
switch fluorescence ratio: 0.985 ± 0.053

CATGGTTCTG
switch fluorescence ratio: 1.02 ± 0.027

CATGGTTGCG
switch fluorescence ratio: 0.987 ± 0.022

CATGGTTTTT
switch fluorescence ratio: 0.9989 ± 0.0082

CATGTAGGTG
switch fluorescence ratio: 1.06 ± 0.048

CATGTAGTCT
switch fluorescence ratio: 1.04 ± 0.013

CATGTAGTGC
switch fluorescence ratio: 1.03 ± 0.089

CATGTCGGTT
switch fluorescence ratio: 0.991 ± 0.019

CATGTGTTTG
switch fluorescence ratio: 0.993 ± 0.014

CATGTTGCGA
switch fluorescence ratio: 1.04 ± 0.023

CATGTTTGCC
switch fluorescence ratio: 1.02 ± 0.015

CATGTTTGTG
switch fluorescence ratio: 0.982 ± 0.023

CATGTTTTTT
switch fluorescence ratio: 0.987 ± 0.024

CATTAAGTCT
switch fluorescence ratio: 1.02 ± 0.036

CATTAATAGT
switch fluorescence ratio: 0.98 ± 0.031

CATTACAACA
switch fluorescence ratio: 1.02 ± 0.059

CATTACGCCG
switch fluorescence ratio: 1.11 ± 0.042

CATTACGGCG
switch fluorescence ratio: 0.995 ± 0.043

CATTAGACAT
switch fluorescence ratio: 0.994 ± 0.026

CATTAGAGGG
switch fluorescence ratio: 0.988 ± 0.031

CATTAGGGTC
switch fluorescence ratio: 0.932 ± 0.019

CATTAGTCGT
switch fluorescence ratio: 0.996 ± 0.013

CATTAGTTGT
switch fluorescence ratio: 1.02 ± 0.011

CATTAGTTTC
switch fluorescence ratio: 1 ± 0.028

CATTATACAT
switch fluorescence ratio: 1.01 ± 0.023

CATTATAGAT
switch fluorescence ratio: 0.997 ± 0.021

CATTATAGCG
switch fluorescence ratio: 0.991 ± 0.023

CATTATGTGC
switch fluorescence ratio: 0.981 ± 0.027

CATTATGTTG
switch fluorescence ratio: 0.969 ± 0.036

CATTATTTAG
switch fluorescence ratio: 1.01 ± 0.033

CATTATTTGG
switch fluorescence ratio: 1.003 ± 0.002
